Experimental data reported in paper PMC3629208, “Effective Identification of Akt Interacting Proteins by Two-Step Chemical Crosslinking, Co-Immunoprecipitation and Mass Spectrometry” (PLoS ONE, 2013).

B1: extracellular regulated kinase-1 and -2 (ERK1/2) (natural protein, mouse (endogenous in Neuro 2A), UniProt P63085 1-358, looked up)
chain: MAAAAAAGPEMVRGQVFDVGPRYTNLSYIGEGAYGMVCSAYDNLNKVRVAIKKISPFEHQTYCQRTLREIKILLRFRHENIIGINDIIRAPTIEQMKDVYIVQDLMETDLYKLLKTQHLSNDHICYFLYQILRGLKYIHSANVLHRDLKPSNLLLNTTCDLKICDFGLARVADPDHDHTGFLTEYVATRWYRAPEIMLNSKGYTKSIDIWSVGCILAEMLSNRPIFPGKHYLDQLNHILGILGSPSQEDLNCIINLKARNYLLSLPHKNKVPWNRLFPNADSKALDLLDKMLTFNPHKRIEVEQALAHPYLEQYYDPSDEPIAEAPFKFDMELDDLPKEKLKELIFEETARFQPGYRS
notes: ERK1/2, mouse, endogenous; the MS entry is a single 42 kDa protein; source: endogenous, Neuro 2A lysate
B2: glycogen synthase kinase (GSK)-3β (enzyme, mouse (endogenous in Neuro 2A), UniProt Q9WV60 1-420, looked up)
chain: MSGRPRTTSFAESCKPVQQPSAFGSMKVSRDKDGSKVTTVVATPGQGPDRPQEVSYTDTKVIGNGSFGVVYQAKLCDSGELVAIKKVLQDKRFKNRELQIMRKLDHCNIVRLRYFFYSSGEKKDEVYLNLVLDYVPETVYRVARHYSRAKQTLPVIYVKLYMYQLFRSLAYIHSFGICHRDIKPQNLLLDPDTAVLKLCDFGSAKQLVRGEPNVSYICSRYYRAPELIFGATDYTSSIDVWSAGCVLAELLLGQPIFPGDSGVDQLVEIIKVLGTPTREQIREMNPNYTEFKFPQIKAHPWTKVFRPRTPPEAIALCSRLLEYTPTARLTPLEACAHSFFDELRDPNVKLPNGRDTPALFNFTTQELSSNPPLATILIPPHARIQAAASPPANATAASDTNAGDRGQTNNAASASASNST
notes: glycogen synthase kinase-3 beta, mouse, endogenous; gi 9790077, 47 kDa; source: endogenous, Neuro 2A lysate
B3: ErbB3 binding protein 1 (EBP1, also called proliferation-associated protein 2G4) (natural protein, mouse (endogenous in Neuro 2A), UniProt P50580 1-394, looked up)
chain: MSGEDEQQEQTIAEDLVVTKYKMGGDIANRVLRSLVEASSSGVSVLSLCEKGDAMIMEETGKIFKKEKEMKKGIAFPTSISVNNCVCHFSPLKSDQDYILKEGDLVKIDLGVHVDGFIANVAHTFVIGVAQGTQVTGRKADVIKAAHLCAEAALRLVKPGNQNTQVTEAWNKVAHSFNCTPIEGMLSHQLKQHVIDGEKTIIQNPTDQQKKDHEKAEFEVHEVYAVDVLVSSGEGKAKDAGQRTTIYKRDPSKQYGLKMKTSRAFFSEVERRFDAMPFTLRAFEDEKKARMGVVECAKHELLQPFNVLYEKEGEFVAQFKFTVLLMPNGPMRITSGPFEPDLYKSEMEVQDAELKALLQSSASRKTQKKKKKKASKTVENATSGETLEENGAGD
notes: EBP1 (proliferation-associated protein 2G4), mouse, endogenous; gi 116283229, 42 kDa; source: endogenous, Neuro 2A lysate
B4: nuclear distribution gene C (Nudc, also named nuclear migration gene C) (natural protein)
chain: not shown
notes: nuclear migration protein nudC, mouse, endogenous; gi 6754910, 38 kDa; source: endogenous, Neuro 2A lysate

Target: T1, Akt (protein kinase B), Akt1 (mouse (endogenous in Neuro 2A), UniProt P31750 1-480)
T1 construct: Akt1, mouse, endogenous in Neuro 2A cells, captured by a rabbit anti-Akt antibody; MS peptide assigned to Akt1 (gi/6753034); Bait of all co-IPs; The anti-Akt antibody may also capture other Akt isoforms; Cells were unstimulated or IGF-1 stimulated (phospho-T308 as the mark of active Akt); source: endogenous, Neuro 2A lysate
Test: co-IP; two-step crosslinking co-IP (DSS-fixed anti-Akt antibody, DSP-crosslinking of the bound complexes) from Neuro 2A lysate, western blot; cells with or without IGF-1 (10 ng/mL, 10 min); band intensity normalized to Akt level
Conditions: partners not purified

T1 sequence (P31750 whole entry, canonical isoform): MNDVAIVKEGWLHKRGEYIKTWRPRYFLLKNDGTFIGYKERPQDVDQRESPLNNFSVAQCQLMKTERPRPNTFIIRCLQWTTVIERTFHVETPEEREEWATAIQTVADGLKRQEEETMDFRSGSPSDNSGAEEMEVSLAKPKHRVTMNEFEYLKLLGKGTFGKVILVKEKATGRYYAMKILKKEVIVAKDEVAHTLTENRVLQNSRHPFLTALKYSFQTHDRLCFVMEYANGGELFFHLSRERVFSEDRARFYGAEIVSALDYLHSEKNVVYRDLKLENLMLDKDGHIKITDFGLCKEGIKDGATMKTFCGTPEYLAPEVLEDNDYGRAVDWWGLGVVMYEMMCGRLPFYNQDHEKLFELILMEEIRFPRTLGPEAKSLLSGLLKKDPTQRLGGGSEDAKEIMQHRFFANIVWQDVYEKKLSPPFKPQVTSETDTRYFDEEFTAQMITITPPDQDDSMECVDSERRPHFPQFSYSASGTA

Binder | fold change of association, IGF-stimulated against unstimulated, normalized to Akt level [fold] | fold increase of co-precipitated ERK1/2 with DSP-crosslinking against without, normalized to Akt level [fold] | fold increase of association, IGF-stimulated (active Akt) against unstimulated, normalized to Akt level [fold]
B1 | 0.98 | 2.5 ± 0.2 | –
B2 | – | – | 1.8
B3 | – | – | 2.4
B4 | 0.97 ± 0.1 | – | –
